Assay results reported in patent publication US20110145940, “TAL EFFECTOR-MEDIATED DNA MODIFICATION” (published 2011).

Target: AvrBs3 TALEN (BamHI fragment-FokI) (Xanthomonas campestris pv. vesicatoria, UniProt P14727 SEQ:26-1141)
Experiment: cell_activity; yeast lacZ SSA assay, 18 bp spacer; optima 15 and 21 bp
Conditions: tags: FokI catalytic domain fusion, N-terminal NLS; chain copies: 2 (inferred); two sites in inverted orientation around spacer

B1: AvrBs3 site (dsDNA)
DNA 1: ATATAAACCTAACCATCC
DNA 2: GGATGGTTAGGTTTATAT
Question: With B1 as the binder, how does the activity read?
Answer: The activity was 15.8 fold over target-only control.
